The subject of the assay is Arabidopsis plants. The settings on record: for High concentration herbicide tolerance: Table 1; for High concentration herbicide tolerance / Herbicide tolerance: yes/no; for Herbicide tolerance: Table 2, FIG. 6C legend: Star 1.25 kg/hectare.

B1: SEQ ID NO: 103: Nicotiana tabacum protoporphyrinogen oxidase, mitochondrial, NP_001312887.1 (protein, listed as Nicotiana tabacum)
chain: MAPSAGEDKHSSAKRVAVIGAGVSGLAAAYKLKIHGLNVTVFEAEGKAGGKLRSVSQDGLIWDEGANTMTESEGDVTFLIDSLGLREKQQFPLSQNKRYIARNGTPVLLPSNPIDLIKSNFLSTGSKLQMLLEPILWKNKKLSQVSDSHESVSGFFQRHFGKEVVDYLIDPFVAGTCGGDPDSLSMHHSFPELWNLEKRFGSVILGAIRSKLSPKNEKKQGPPKTSANKKRQRGSFSFLGGMQTLTDAICKDLREDELRLNSRVLELSCSCTEDSAIDSWSIISASPHKRQSEEESFDAVIMTAPLCDVKSMKIAKRGNPFLLNFIPEVDYVPLSVVITTFKRENVKYPLEGFGVLVPSKEQQHGLKTLGTLFSSMMFPDRAPNNVYLYTTFVGGSRNRELAKASRTELKEIVTSDLKQLLGAEGEPTYVNHLYWSKAFPLYGHNYDSVLDAIDKMEKNLPGLFYAGNHRGGLSVGKALSSGCNAADLVISYLESVSTDSKRHC
With B1, the “High concentration herbicide tolerance” value is “no”.

B2: SEQ ID NO: 97: PPO from Rhodotorula sp. Protein. (protein, listed as Rhodotorula sp.)
chain: MQSYSGNALARQSVPIKPIRRRTPRLNLIRSLPSPRFFVTSPSSSQRHDHPYHTLAILGGGLSGLSTAHYFLRTLSPSLRDQTRIVVLEKEERVGGWCRAVRIQNGRRLGENEKPEGTEDLLVFETGPRSVRPVGLLGWLTIEMAHELGLTPSIVTVPKSAPSARNRFIYTGHRSSTSISPILKAALPTIPSALLEPFRPRSPLHDDPSGLADESVDSFIARRFGRRLADELASAGIHGIYAGDTRRLSVRAVLPALWELEKEWGSVVIGALFGSFARRRGWKKNSPWRMRQQAETEEMERVKERIRAKGGEALVEDMEKASVWGVKGGLQVVTETLREKLEAEGVEFWMGEKGKVEHVEKVDGGWQIRTSSGALDASQLVTTIPQLLPSSLAPPALPATTVSVVNLAFEKPAPGSPPLHPAGFGYLIPRTVPSSLNPHRALGVIFDSDVMPDVDSSSSLGLTKLSLLLGGSYWLDRHPPPQPSHDDLVNAALETLRLHFPDRPIPKPVHAFTHTHVNCIPQVPPGFMPSFRAFGDRLREAGNVAVVGGGFAAVGVNGCVKAAWEVGSAMAQAVNAQAGGKEGEGEEKVREAVARTVKTGTEMWEL
For the molecule B2, the “High concentration herbicide tolerance” value is “yes” and the Herbicide tolerance entry was “yes”.

B3: SEQ ID NO: 98: PPO from Hesseltinella sp. Protein. (protein, listed as Hesseltinella sp.)
chain: MPRSIVVLGGGISGLSAAYYLSRLVPQAHIRLIESNKRAGGFIKTQQVNDHLIFEAGPRTLRPHGTSGTVLLDMIKDLDLSPLLVNIPKSHPSAQHRYIEYHGQINQLPSGLADMLLHSPPIMDSVITAGMREPFLARASTTKDESLYNFMERRFNEHTALNLMGAMAHGIYAGDAKQLSVHSTFPILAACEQEYGSVVLGMLSGKLSVESPRERQLADACRAKDPEWFKQMQQSSVLGFLPGLGALPSRLTQFLSSQPNVSMQLGETVSRLDGQSSHQIEITTSQGQIYHADHIVSTLPSHALARISMPTTTSLPHLTHNPSADVALVNLAYEKCKVKPGLDGFGFLTPHADTMPPSQFPGLLGMIFDSNSLGVQDQDSNMVRFTAMIGGADWNLAFGSLHDNDAISSKALTMATAALSKYLEIHESPAHYHCRILRQCIPQYLVGHRQRMNELHAALQHSFGHTMSVTGASYLGVSVPDCIKHSRMLIEDLVDTGALGSKQAVITGLEKVTLPMYYKL
Consider B3, for which the “High concentration herbicide tolerance” value is “yes” and the Herbicide tolerance result is reported as “yes”.

B4: SEQ ID NO: 94: PPO from Penicillium sp. Protein. (protein, listed as Penicillium sp.)
chain: MRLLTASKGLRSPQKPLISAIRCQHRSYNAAVIGGGITGLTAAWQLIQDRECSSVTIYEKSRRLGGWLQSETIPVEGGEVVFEYGPRTLRSAMPASLPLLYLVSNLGLFDELITTSKRSPAALNRYIYYPDHLVRLPTPDPDLSLMENARNIFRTITTEPLFEGFITGLLSEPNKPARPQEEWAIDESLAEFITRRFNRKIADNLVSAVMHGIYADNIDEMSAQAIMGPLRNLEDGGILFGLLIKSIMGKKTRSMDDFLAVDAVYKTPETMQRLDEINRVVKTASTFTFKRGTQQLVEGLTRALRASEKVRLVMDADILALDPPANRGHKLKIYTGIRGEESFDHVISAISAPAMARILDPQGQVKIDCDPEDEYRALWNSKKARHPKPNIGTVSGLHFFRHATTVMVVNLYYKTPNLLPVDGFGYLIPRSIPYEQNPECGLGVIFASASSSGESPVAPYPKVSQDSAPGTKITIMFGGHYWDGWKKQDYPDHKTAVRMAKDMLERHLGITEPPALVRTRLQENAIPKYKPPHIHQIYALSRWAKEEYHNRLVLVGNSFSGVGVGDCVRQGIMAATHGVGRHKLTATPRLESKDWCPWKEYNYQHWDLKGGVPTAPVRLFESDI
On to B4, for which the “High concentration herbicide tolerance” value was “yes” and the Herbicide tolerance entry is reported as “yes”.

B5: SEQ ID NO: 100: PPO from Rhizophagus sp. Protein. (protein, listed as Rhizophagus sp.)
chain: MSSPNNFVILGGGISGLSAAWYLSRYAPSTTKILVLEGSNRFGGWIKSKRVGQHKILFEQGPRTLRPNGIGGSVVLDMVNRLNLIPSLHAVTKDDDAAKDRFIYYPDKIVKLPGTSLLSSMKSVFTNNFLLKSIPSILFEPFIKPARNYHDETIHEFISRRFSKSISDILISALIHGIYAGDINKLSIRSTFTRLYNLEQKYGSVIKGLLMSNKEEFLSQQDKYLLKIINDENKDFLSIFKNVSLYSFKDGIEQLSSAIVNDLKNKENVQLKTNNQVTKLEFGENVKIFTNEAVYEADHVISALPSRALYNILPEKDVLPHLNYNPSVSVATINLAYAHPKILPVKGFGYLIPQSTPHNPYHVLGVVFDSNAMPLQDEPSRTYTKLTIMMGGHYFNSISEKDDFPKKEILLQQSIEILEKHLGIYSTPLYYLVDIQKNCIPQYYVGHYSRLKELHYAIKNHYANRLSVTGASYWGISINDCVLNSAKLVLNILSNSPNVVTGLEEVEIQNEHYL
Take B5: the Herbicide tolerance entry is “no”.

B6: SEQ ID NO: 116: PPO from Hesseltinella sp. fused to cTP. Chimeric Protein; cloned from SEQ ID NO: 98 (protein, listed as Hesseltinella sp.)
chain: MELSLLRPTTQSLLPSFSKPNLRLNVYKPLRLRCSVAGGMPRSIVVLGGGISGLSAAYYLSRLVPQAHIRLIESNKRAGGFIKTQQVNDHLIFEAGPRTLRPHGTSGTVLLDMIKDLDLSPLLVNIPKSHPSAQHRYIEYHGQINQLPSGLADMLLHSPPIMDSVITAGMREPFLARASTTKDESLYNFMERRFNEHTALNLMGAMAHGIYAGDAKQLSVHSTFPILAACEQEYGSVVLGMLSGKLSVESPRERQLADACRAKDPEWFKQMQQSSVLGFLPGLGALPSRLTQFLSSQPNVSMQLGETVSRLDGQSSHQIEITTSQGQIYHADHIVSTLPSHALARISMPTTTSLPHLTHNPSADVALVNLAYEKCKVKPGLDGFGFLTPHADTMPPSQFPGLLGMIFDSNSLGVQDQDSNMVRFTAMIGGADWNLAFGSLHDNDAISSKALTMATAALSKYLEIHESPAHYHCRILRQCIPQYLVGHRQRMNELHAALQHSFGHTMSVTGASYLGVSVPDCIKHSRMLIEDLVDTGALGSKQAVITGLEKVTLPMYYKL
For B6, for the setting “FIG. 3C, Strike, Star, Goal, Aurora tested”, the “herbicides against which tolerance was shown” value was “tolerances against Goal and Star herbicides only”.

B7: SEQ ID NO: 102: Glycine max protoporphyrinogen oxidase 1, chloroplastic, XP_003536005.1 (protein)
chain: MVSVFNEILFPPNQTLLRPSLHSPTSFFTSPTRKFPRSRPNPILRCSIAEESTASPPKTRDSAPVDCVVVGGGVSGLCIAQALATKHANANVVVTEARDRVGGNITTMERDGYLWEEGPNSFQPSDPMLTMVVDSGLKDELVLGDPDAPRFVLWNRKLRPVPGKLTDLPFFDLMSIGGKIRAGFGALGIRPPPPGHEESVEEFVRRNLGDEVFERLIEPFCSGVYAGDPSKLSMKAAFGKVWKLEKNGGSIIGGTFKAIQERNGASKPPRDPRLPKPKGQTVGSFRKGLTMLPDAISARLGNKVKLSWKLSSISKLDSGEYSLTYETPEGVVSLQCKTVVLTIPSYVASTLLRPLSAAAADALSKFYYPPVAAVSISYPKEAIRSECLIDGELKGFGQLHPRSQGVETLGTIYSSSLFPNRAPPGRVLLLNYIGGATNTGILSKTDSELVETVDRDLRKILINPNAQDPFVVGVRLWPQAIPQFLVGHLDLLDVAKASIRNTGFEGLFLGGNYVSGVALGRCVEGAYEVAAEVNDFLTNRVYK
modifications: Glycine max
As to B7, the “High concentration herbicide tolerance” value is “no”.

B8: SEQ ID NO: 101: 4IVO_B. Structure of human protoporphyrinogen IX oxidase(R59Q) [Homo sapiens] (protein, listed as Homo sapiens)
chain: MGRTVVVLGGGISGLAASYHLSRAPCPPKVVLVESSERLGGWIRSVRGPNGAIFELGPQGIRPAGALGARTLLLVSELGLDSEVLPVRGDHPAAQNRFLYVGGALHALPTGLRGLLRPSPPFSKPLFWAGLRELTKPRGKEPDETVHSFAQRRLGPEVASLAMDSLCRGVFAGNSRELSIRSCFPSLFQAEQTHRSILLGLLLGAGRTPQPDSALIRQALAERWSQWSLRGGLEMLPQALETHLTSRGVSVLRGQPVCGLSLQAEGRWKVSLRDSSLEADHVISAIPASVLSELLPAEAAPLARALSAITAVSVAVVNLQYQGAHLPVQGFGHLVPSSEDPGVLGIVYDSVAFPEQDGSPPGLRVTVMLGGSWLQTLEASGCVLSQELFQQRAQEAAATQLGLKEMPSHCLVHLHKNCIPQYTLGHWQKLESARQFLTAHRLPLTLAGASYEGVAVNDCIESGRQAAVSVLGTEPNS
As for B8, the “High concentration herbicide tolerance” value was “no” and the Herbicide tolerance entry is “no”.

B9: SEQ ID NO: 96: PPO from Trichoderma sp. Protein. (protein, listed as Trichoderma sp.)
chain: MSLKRADGAAMAFLRLSSAVCGRRRIPAGGLPADANVAVLGGGLTGLTTAYYLAKWLPPTAKITLLEASDRLGGWIKTDRVPVKVGGVEGVVSFERGPRSLSSLNKSTWRFDDLVLWDLALDLGLRVVSPPDKPRYIYYPDHLVPLPPHTSLAAFASEPLVLESLWAGFGYVLRRLFSRKAGVPVQDLSIADWIQHITGSRAVAENLASAMVHGIYGGDIYTLSARSVLDRFYWVHYLPALGPDVRHMALSEQVFMEAMGQDPLIRKLAQQPRGALLNFGEAGMETLPIALADALNGQANVEVKLGAKVTGLEYESETEMMKITTTGQDDSPAEKYHKVISTLPSQHLARITDTLPSLASSHAVSIMTVNIWYPQTNLKPPGFGYLIPLSVPAEQNPERALGVFFDSDVGVRGPDEPAGTKLFVLMGGHYYDKKQPGASVRVPSEEEAIEQAKRVLERHLGIPQSTPCFAMARLASECIPQYVCGHQDTMAAADEDLRDSFDGRLAVAGGSYTKIGAMGALRNGYDIANTVVREDWLTTGLEQLEFPTQFCGVPTERIPVRRFSRR
B9: the “High concentration herbicide tolerance” value is “yes” and the Herbicide tolerance result is given as “yes”.

(Values after patent US12674174B2, “Protoporphyrinogen oxidase (PPO) resistance plant” (PLANTARC BIO LTD., priority 2022, dated 2026).)
